Test results: paper PMC5392723
Substitutions are numbered along the chain they refer to.

Key:
Assay in all cases: EMSA
Glo qRRM1,2 R52A,K149A = target: T1, Glo qRRM1,2 R52A,K149A (Drosophila, UniProt Q9VGH5 49-225, R52A;K149A)
T1 sequence: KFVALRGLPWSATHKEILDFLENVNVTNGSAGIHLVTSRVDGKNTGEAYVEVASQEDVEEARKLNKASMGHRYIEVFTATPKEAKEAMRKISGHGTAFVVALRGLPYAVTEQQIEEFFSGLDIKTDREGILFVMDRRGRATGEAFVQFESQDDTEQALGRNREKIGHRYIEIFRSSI

Glo qRRM1,2 W58A = target: T2, Glo qRRM1,2 W58A (Drosophila, UniProt Q9VGH5 49-225, W58A)
T2 sequence: T1 sequence with A4R, W10A, A101K

Glo qRRM2 = target: T3, Glo qRRM2 (Drosophila, UniProt Q9VGH5 146-225)
T3 sequence: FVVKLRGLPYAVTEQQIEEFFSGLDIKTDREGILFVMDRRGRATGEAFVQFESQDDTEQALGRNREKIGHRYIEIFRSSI

Glo qRRM1 = target: T4, Glo qRRM1 (Drosophila, UniProt Q9VGH5 49-129)
T4 sequence: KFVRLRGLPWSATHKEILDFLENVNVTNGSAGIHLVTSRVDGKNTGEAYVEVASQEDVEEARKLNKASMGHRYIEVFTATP

Glo qRRM3 = target: T5, Glo qRRM3 (Drosophila, UniProt Q9VGH5 476-565)
T5 sequence: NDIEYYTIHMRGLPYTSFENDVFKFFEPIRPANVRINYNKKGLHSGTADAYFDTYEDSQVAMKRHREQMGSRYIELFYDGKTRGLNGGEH

B1: G-tract RNA 5'-AGGGA (ssRNA)
RNA: AGGGA
Glo qRRM1,2 R52A,K149A
  binding result: binds
Glo qRRM1,2 W58A
  binding result: binds
Glo qRRM2
  Kd: 620 nM
Glo qRRM1
  Kd: 180 nM
Glo qRRM3
  Kd: 170 nM
